B1: BMPRII extracellular domain (ECD), wild type [human] / BMP10 growth factor (GF)-domain from Pro:BMP10 made in HEK EBNA cells [human] (parent)
chain 1: SQNQERLCAFKDPYQQDLGIGESRISHENGTILCSKGSTCYGLWEKSKGDINLVKQGCWSHIGDPQECHYEECVVTTTPPSIQNGTYRFCCCSTDLCNVNFTENFPPPDTTPLSPPHSFNRDET
chain 2: NAKGNYCKRTPLYIDFKEIGWDSWIIAPPGYEAYECRGVCNYPLAEHLTPTKHAIIQALVHLKNSQKASKACCVPTKLEPISILYLDKGVVTYKFKYEGMAVSECGCR

Legend:
[1] = variants of: B1; assay: ELISA (prodomain displacement); conditions: with BMP10 growth factor (GF)-domain from Pro:BMP10 made in HEK EBNA cells [human]; BMPRII ECD at 125x excess over Pro:BMP10; lower reading = more prodomain displaced; parent: 0.42; read off a plot
[2] = variants of: B1; assay: native PAGE prodomain displacement (densitometry); conditions: with BMP10 growth factor (GF)-domain from Pro:BMP10 made in HEK EBNA cells [human], lower ratio = more prodomain displaced, read off a plot
[3] = variants of: B1; assay: SPR (Biacore); conditions: with Recombinant human BMP10 growth factor (GF)-domain (R&D Systems) [human], BMP10 immobilised on a CM5 Biacore chip
[4] = BMPRII ECD at 2-fold excess (2x) over Pro:BMP10, parent: 0.59
[5] = BMPRII ECD at 5-fold excess (5x) over Pro:BMP10, parent: 0.46

Row | screen value [1] | screen value [2, 4] | screen value [2, 5] | Kd ([3]; parent: 1.19e+03 nM) [nM] | koff ([3]; parent: 0.161) [s⁻¹] | kon ([3]; parent: 1.35e+05) [M⁻¹ s⁻¹] | Variant
1 | 0.3 | 0.7 | 0.66 | – | – | – | chain 1 S81P
2 | 0.47 | 0.77 | 0.55 | – | – | – | chain 1 Q66H
3 | 0.52 | 0.64 | 0.39 | 1320 | 0.14 | 106000 | chain 1 N100S
4 | 0.75 | 0.99 | 0.93 | – | – | – | chain 1 G63E
5 | 0.95 | 0.82 | 0.72 | – | – | – | chain 1 G42D

Second part, the variant before the results:

Row | Variant | screen value [1] | screen value [2, 4] | screen value [2, 5] | Kd ([3]; parent: 1.19e+03 nM) [nM] | koff ([3]; parent: 0.161) [s⁻¹] | kon ([3]; parent: 1.35e+05) [M⁻¹ s⁻¹]
6 | chain 1 E72K | 0.42 | 0.49 | 0.19 | – | – | –
7 | chain 1 Y41C | 1 | 0.93 | 0.88 | – | – | –
8 | chain 1 G63A | 0.57 | 0.78 | 0.6 | – | – | –
9 | chain 1 G63W | 0.67 | 0.9 | 0.77 | – | – | –
10 | chain 1 G57E | 1 | 0.93 | 0.88 | – | – | –

Reference: article PMC9064986
